Experimental data taken from patent US20210253725A1 (BIONTECH, published 2021).
Positions count from the first letter of the chain named. Names and notes keep the numbering of the source.

T1: CD27 expressed on the cell surface (HT1080_CD27 cells) (human, UniProt P26842 20-260)
T1 construct: whole, on cells; also called K562_CD27
T1 sequence (looked up): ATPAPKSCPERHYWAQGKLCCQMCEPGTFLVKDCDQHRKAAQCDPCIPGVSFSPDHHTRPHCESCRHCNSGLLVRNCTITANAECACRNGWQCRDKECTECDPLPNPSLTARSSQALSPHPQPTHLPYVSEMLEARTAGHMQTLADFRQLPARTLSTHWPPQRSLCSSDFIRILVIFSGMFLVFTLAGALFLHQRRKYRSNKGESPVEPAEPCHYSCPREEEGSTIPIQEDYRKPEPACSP

T2: CD27 protein (His-tagged, Sino Biological Inc. 10039-H08B1) (human, UniProt P26842 20-192)
T2 construct: bought; coated onto ELISA plates; also called human CD27; recombinant protein; not shown: His tag
T2 sequence (looked up): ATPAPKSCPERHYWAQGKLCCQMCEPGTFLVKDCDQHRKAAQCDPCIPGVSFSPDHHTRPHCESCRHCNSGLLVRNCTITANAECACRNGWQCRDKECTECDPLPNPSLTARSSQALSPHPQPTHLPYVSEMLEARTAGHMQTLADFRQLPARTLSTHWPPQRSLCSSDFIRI

B1: P018.S.01.A.H06 (antibody, V domains shown)
VH: QEQLKESGGRLVKPDETLTITCTASGFSLSRYDMSWVRQAPGKGLEWIGSIWSDGDTDYANWAKGRFTISKTSTTVDLKITSPTTEDTATYFCARGYTAWSLWGPGTLVTVSS
VL: ALVMTQTPSPVSAAVGGTVTISCQSSESVVGNNALSWFQQKPGQPPKLLNYQASTLASGVSSRFSGSGSGTQFTLTISGVQSDDAATYYCQGTYYSSGWYFAFGGGTEVVVK
notes: V regions on human Ig constant parts; also called AB27_26
B2: P018.S.05.A.G04 (antibody, V domains shown)
VH: B1 VH with T17S, I20L, T75M, A94G, S101N
VL: B1 VL with A14T, V19L, N50I
notes: V regions on human Ig constant parts; also called AB27_93
B3: P018.S.07.A.F04 (antibody, V domains shown)
VH: QSLEESGGRLVTPGTPLTLTCTVSGFSLSSHAMSWVRQAPGKGLEYIGIIDTDASASYASWAKGRFTISRTSTTVDLKITSPTTEDTATYFCARDGGYTDYSYYAMDLWGPGTLVTVSS
VL: DIVMTQTPASVEAAVGGTVTIKCQASETIYVNLAWYQQKPGQPPKLLIYRASTLASGVSSRFKGSGSGTEFTLTISDVKSVDAATYYCHQAYRRSDVGNIFGGGTEVVVK
notes: V regions on human Ig constant parts; also called AB27_128
B4: P018.S.07.A.D04 (antibody, V domains shown)
VH: QSLEESGGRLVTPGGSLTLTCTVSGIDLSSYAMGWVRQAPGKGLEWIGIISSSGSTYYASWANGRFTISKTSTTVDLKVTSPTTEDTATYFCARDGDSGRGYYFHFWGQGTLVTVSS
VL: AFELTQTPASVSAAVGGTVTIKCQASEDIYSLLAWYQQKPGQPPKLLIYDASDLASGVPSRFSGSGSGTEYTLTISDLESADAAIYYCQQGYTTVTIVDNVFGGGTEVVVK
notes: V regions on human Ig constant parts; also called AB27_123
B5: P018.S.07.A.H06 (antibody, V domains shown)
VH: QSLEESGGDLVQPGASLTLTCKASGIDLSSYWMCWVRQTPGKGLEWIGCIATYSSVTYYANWAKGRFTISKPSSTTVTLQMTSLTAADTATYFCARDPYSFNGSLFTLWGPGTLVTVSS
VL: ALVMTQTASPVSAAVGGTVTIDCQASQNIGTYLAWYQQKPGQPPKLLIYTASSLASGVPSRFKGSGSGTQFTLTISDLESDDAATYYCAGYKNYNNDDNGFGGGTEVVVK
notes: V regions on human Ig constant parts; also called AB27_134
B6: P018.S.08.A.E02 (antibody, V domains shown)
VH: QSLEESGGRLVTPGGSLTLTCTVSGIDLSSYDMNWVRQAPGEGLEWIGAISTGGDTHYTNWAKGRFTISKTSTTVDLKMTSLTAADTATYFCARGYYTLALWGQGTLVTVSS
VL: DPVLTQTPASVEAAVGGTVTIKCQASQSINSWLSWYQQKPGQPPKRLIYDTSTLESGVPSRFSGGESGTEFTLTISDLESDDAATYYCQSYYYITSSYAITFGGGTEVVVK
notes: V regions on human Ig constant parts; also called AB27_139
B7: P018.S.02.A.E06 (antibody, V domains shown)
VH: QSLEESGGRLVTPGTPLTLTCTASGFSLSNYSMNWVRQAPGKGLEWIGIINMYGSTYYATWAKGRFTISKTSTTVDLKMTSLTTEDTATYFCARDAGGSTVPWYFDLWGPGTLVTVSS
VL: AYDMTQTPASVSEPVGGTVTIKCQASESISDYLAWYQQKPGQRPKLLIYDASKLASGVPSRFSGSGSGTEFTLTISGVGSADAATYYCQQGYADSNVDNVFGGGTEVVVK
notes: V regions on human Ig constant parts; also called AB27_34
B8: P018.S.03.A.C05 (antibody, V domains shown)
VH: QSLEESGGGLVQPGGTLTLTCKASGIDFSSSFYMCWVRQAPGKGLERIACTYNRDGSTYYASWAKGRFTISKTSSTTVTLQMASLTVADTATYFCARDDGYPGSGYVFNLWGPGTLVTVSS
VL: DVVMTQTPASVEAAVGGTVTIKCQASQSVSSYLSWYQQKPGQRPKLLIYGASNLESGVPSRFKGSGSGTEFTLTISGVQSDDAATYYCQGGYYSSGADNNSFGGGTELVVK
notes: V regions on human Ig constant parts; also called AB27_46
B9: P018.S.09.A.D04 (antibody, V domains shown)
VH: QSVEESGGRLVTPGTPLTLTCTVSGFSLSSNAISWVRQAPGKGLEWIAIITHSDNTFYASWAKGRFTISKASTTVDLKVTSPTTEDTATYFCARDGYVSSSGTYMGGYFDLWGQGTLVTVSS
VL: DPVLTQTPSPVSAAVGGTVTINCQASQIIYNDKNLAWYQQKPGQPPKLLIYYASTLASGVSSRFKGSASGTQFTFTISGVQSDDAATYYCQGEFSCSSADCIAFGGGTEVVVK
notes: V regions on human Ig constant parts; also called AB27_151
B10: P018.S.07.A.G02 (antibody, V domains shown)
VH: QSVEESGGRLVTPGTPLTLTCTVSGFSLSSYDMSWVRQAPGKGLEWIGWITTDGGTDYASWAKGRFTVSKASTTVDLKITSPTTEDTATYFCARGYASFNLWGQGTLVTVSS
VL: AQVLTQTPSSVSAAVGGTVTINCQSSQSVLSNSYLAWYQQKPGQPPKLLIYAASSLASGVPSRFKGSGSGTQFTLTISDLESDDAATYYCQGTDYSGGWYVAFGGGTEVVVK
notes: V regions on human Ig constant parts; also called AB27_129
B11: P018.S.08.A.H02 (antibody, V domains shown)
VH: QSLEESGGRLVTPGTPLTLTCTASGFSLSYYYMTWVRQAPGKGLEWIGITGGGGDTYYGTWAKGRFTISKTSTTVDLKMTSPTTEDTATYFCARGTDGAAHTGFALWGQGTLVTVSS
VL: DIVMTQTPASVEAAVGGTVTIKCQASEDISSRLSWYQQKPGQPPKLLIYLASTLASGVPSRFKGSGSGTQFTLTISDLESADAATYYCQSSSYGTSTIYGTFGGGTEVVVK
notes: V regions on human Ig constant parts; also called AB27_142
B12: P018.S.01.A.F05 (antibody, V domains shown)
VH: QEQLEESGGDLVKPEGSLTLTCTASGFSFSSSYWICWVRQAPGKGLEWIGCIITGRGNTYYANWAKGRFTISKTSSTTVTLQMTSLTAADTAIYSCARGPGGADPVNLWGPGTLVTVSS
VL: DVVMTQTPASVSEPVGGTVTIKCQASQSIYSNLAWYQQKPGQPPKLLIYRASTLTSGVPSRFKGSGSGTQFTLTISDLESADAATYYCQCTYDGSSYVPNAFGGGTEVVVK
notes: V regions on human Ig constant parts; also called AB27_20
B13: P018.S.07.A.D03 (antibody, V domains shown)
VH: QEQLKESGGGLVTPGGTLTLTCTVSGFSLSGHDMGWVRQAPGKGLEWIGIIGSNSKTYYTNWAKGRFTISKTSTTVGLRITSPTTEDTATYFCTVVGPGVGGFYFDLWGQGTLVTVSS
VL: DVVMTQTPASVSDPVGGTVTIRCQASQSIGSDLAWYQQKPGQPPKLLIYAASTLASGVPSRFSGSGSGTEYTLTISDLESADAATYYCQCTYVGSTYLGAFGGGTEVVVK
notes: V regions on human Ig constant parts; also called AB27_122
B14: P018.S.04.A.A01 (antibody, V domains shown)
VH: QEQLVESGGGLVQPEGSLTLTCTESGFSFSSNAVCWVRQAPGKGLEWIACIYVDSIGSTWYASWAKGRFTISKTSSTTVTLQMTSLTAADTATYFCARGDNIAYFMLWGPGTLVTVSS
VL: DIVMTQTPASVEAAVGGTVTIRCQASESITSFLSWYQQKPGQPPKLLIYKISTLASGVPSRFKASGSGTEFTLTISDLESADAAAYYCQGYYYYSNVVYASNGFGGGTEVVVK
notes: V regions on human Ig constant parts; also called AB27_64
B15: P018.S.04.A.D05 (antibody, V domains shown)
VH: QSLEESGGRLVTPGTPLTLTCTASGIDLSRHAINWVRQAPGKGLEYIGTIYASGSTFYASGAKGRFTISKTSTTVDLGITSLTTEDTATYFCARGITIEWFDLWGQGTLVTVSS
VL: AAVLTQTPSSVSAAVGGTVTINCQSSPSVYSNYLSWFQQKPGQPPKLLIYGAATLASGVPSRFRGSGSGTEFTLTITDVQSDDAATYYCLGGYSDTADTIFGGGTEVVVK
notes: V regions on human Ig constant parts; also called AB27_73
B16: P018.S.09.A.H03 (antibody, V domains shown)
VH: QSLEESGGRLVTPDESLTLTCTVSGFSLSSNAMIWVRQAPGKGLEWIGIIDTGGSAYYASWAKGRFTISKTSTTVDLKITSPTTEDTATYFCARDRYTDSSGYNLWGQGTLVTVSS
VL: DIVMTQTPASVEAAVGGTVTIKCQASQSIGASLAWYKQKPGQPPKLLIYSASWLASGVPSRFKGSGSGTEFTLTISDLASADAATYYCQSYYYRSSSGYGYAFGGGTEVVVK
notes: V regions on human Ig constant parts; also called AB27_160

Target: T1, CD27 expressed on the cell surface …
Test: cellular binding assay, HT1080_CD27 cells
Further: test concentration or dose not given here.

| Binder | Cellular binding assay [RFU] |
| --- | --- |
| B1 | 422 |
| B2 | 375 |
| B3 | 296 |
| B4 | 393 |
| B5 | 327 |
| B6 | 387 |
| B7 | 331 |
| B8 | 303 |
| B9 | 376 |
| B10 | 453 |
| B11 | 352 |
| B12 | 369 |
| B13 | 409 |
| B14 | 297 |
| B15 | 292 |
| B16 | 268 |

Target: T2, CD27 protein (His-tagged, Sino …)
Test: ELISA on coated His-tagged CD27

| Binder | ELISA [abs. corr.] |
| --- | --- |
| B1 | 3.44 |
| B2 | 3.35 |
| B3 | 3.35 |
| B4 | 3.33 |
| B5 | 3.35 |
| B6 | 3.33 |
| B7 | 3.32 |
| B8 | 3.32 |
| B9 | 3.35 |
| B10 | 3.33 |
| B11 | 3.58 |
| B12 | 3.35 |
| B13 | 3.34 |
| B14 | 3.32 |
| B15 | 3.33 |
| B16 | 3.54 |

Target: T1, CD27 expressed on the cell surface …
Test: cell-based or functional assay

| Binder | IL-8, cross-linked by F(ab')2 fragment [abs. corr.] | IL-8 [abs. corr.] |
| --- | --- | --- |
| B1 | 2.18 | 0.27 |
| B2 | 1.19 | 0.393 |
| B3 | 1.58 | 0.424 |
| B4 | 1.81 | 0.449 |
| B5 | 1.23 | 0.422 |
| B6 | 1.55 | 0.315 |
| B7 | 1.29 | 0.308 |
| B8 | 1.63 | 0.544 |
| B9 | 1.66 | 0.688 |
| B10 | 2.41 | 0.725 |
| B11 | 1.91 | 0.328 |
| B12 | 1.18 | 0.559 |
| B13 | 1.68 | 0.569 |
| B14 | 1.47 | 0.176 |
| B15 | 1.08 | 0.241 |
| B16 | 2.13 | 0.578 |
